The record followed here is the NTF2 design screens of Basanta et al. (2020).

A short description of this series: protease stability score; higher = more stable; yeast display proteolysis, trypsin and chymotrypsin.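 Also: log10 excess protease needed over predicted unfolded state with 0 meaning unfolded.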
With “DEQLNKHFVRLMQNNDFEELVRNADKDVRVRIGNKEYQGREEANTALKTFHKQVDKLTIRSYDYHNGSAKIDLEVRFNGQKFRFVVTARLHNGKMKSMRINFTNPEDQKQLDRDMS”, the protease stability score was determined as 1.41.

As to “DEQLRDRVTQLFKVWQTGDPKKVSEMFDKDARLEYGDKTVHGMEEARHQQDTRRREARLSLDIRSINVQGNQVEIDVRIEEDENGKPDTKQVTIRIRARNGRIHNAKLQDDG”, the protease stability score is 0.1.

The sequence “DEQLVKILQRFRKAMEHGDPKEAQKYFDPNAEFVYGDKEIHGREQVNTWIHTFMRSIRVDIKSLTVRASGNKAHIQYSAVYEENGRPKTAHFHMTVQVTNGKIKHADVKYRG” returned a protease stability score of 1.1.

“DEQNEAKRLVEKLQSIVKSGDEEEWMKQFDENVKVSVGDKTVHGREDMVKQYQQHVKRADTMELQVNEYSVHNGRVSIRYKMRVDVNGQRHTTEAHVDFRNVNGRFKAQSVNQK” came in with a protease stability score of 0.

The sequence “DEQNLQDAAQRVDEVLRKGNEEDVTKMMDKDATMTVGDKVIHGRSKVRQQVRRLHEQVDHQEVEYVTAHNGRIKINMQADVNGQSLTFTVHIKVRNGRVKEIQIDPDYKRNLDR” yielded a protease stability score of -0.224.

Consider “DEQNQIKKIADDLETAARTNDPDKLLNMVDPNAKITYGDEEVHGRREAKRWLKEVNDHVDHMHVDIKRVHASGDKFTLRYRLVLVQNGKKDTTRVVATLRRTDGRVQIQSIDSG”, for which the protease stability score is 0.033.

“DEQQAKRVAEEFNRVLQTGDNRKAMQLADKDVKLHVGDKDVHGRETMMKLVRKERDRVDHVEIKEVTIQGNKIDVILTVVVNGRHKEKHYVLHLHNGRIEDLSVRST”: the protease stability score was 0.005.

“DEQRIADNLDERFRRVMENNNEDELRKLFDKDARVRVGDKTLHGREEVDKRLREILQRADHIDIKVNDIHVRGDKINIHFKIRIVVDGRDRFYTAVVRADVHNGEAKIVELKQS” displayed a protease stability score of 0.213.

In the case of “DEQRQAEEWVDKLESELHDGDFTKFANMADENARIVIGDKEIHGRENLQEHAKELKHRVDHVEMHVRHLYVTNGTLTVDVDMVLNHNGQRDKRRVVIVATSENGKFRAQHVTYS”, the protease stability score is 1.05.

Sequence “DEQRYRELMETAFHLVISGDEDTLDQIGKPNMEYHYVDRTLHGKDVLRVLVKIVKRVGAEARVEEAEVNGDTARAKFQYRKGDNTVQTDAEVKYEGDQIKKARVRLNDEVRKVLKDG” registered a protease stability score of 0.174.

In the case of “DEQSEAEKFARDIQKIANHNNFERLARMADKDVKYNVGDKVITGEEKAIEHHRRLQKQFDSMRLEIESVRVQGEKIVVVARYTVEVNGTTRSERFVLVAEVHNGTIRIKTVQQG”, the protease stability score was -0.167.

“DEQSVAEELFENLQDAVRENNPDEYKKLVDPNVNFDVGDKKVHGREQASEKFRQDLERADHIDMKVTSLRVDNGRAQADVRVTRVINGESETVEYILRFEVHGDEAVVKSQHDK” gave a protease stability score of 0.45.

For “DEQTAAKKANELAEAISTGDPERVMELADKDVKVVVGDKTYHGKEDLREMAKRFRDRVDHAQIDSVTNDGEHAKIHMRVEVNGHTVEIDLVIEARNGHAKHLQVDPDDQRKLEG”, the protease stability score is 0.919.

Sequence “DEQTHAEELARNFVTAIRTNNDQDIRDLFDKDARVEVGDKTIHGRENIARSIITIAKRVDSVDIRIQHVEVQGDKINIKMERRYDHNGQEHKKDLTMVARLTNGHMRIKVVKMD” came in with a protease stability score of 0.885.

For the sequence “DEQTKAERFVQRVEEILKHGDEKKYAHLADKNVKVKYGDKEWHGREHWEKEVKKTRDKVDDIRIDYKELQVHNGKVDVRFQVRNNHNGKNESRDASYTLDDHNGRIRIQSMHVK”, the protease stability score is -0.009.

As for “DEQTKAQQFAEDVVKANQQNDKDRLTEQFDKNARVQVGEKEVHGREHIMEELIKLMTEADKVDVKVRHVHAQGDKVHLDIHFRMRVNGQDHDSRMTIVARNSNGTVVIESVDVK”, the protease stability score turned out to be 1.19.

“DEQVLRVLNEYLEDLKRNNEERLRKLADPNVKFQVGDKTLHGMEDAVNHWRHLLDHMELRIDITEVNVSNGRAVVNARASQNVNGRPNDNEVQIVAEAHNGTLKFVEWRFDPDRQRKIDS” came in with a protease stability score of 0.114.

The sequence “DEQVQKQFKEAMRNREKGDKDKVVENFDKHVKVSVGDRTYHGMDDIARRQNEHMKEIRVEYRDVKMSVDNGKIVIHVRQQLEDNGEPREFSYTAEANATNGRIKSYRVDMDPEQVREVDR” gave a protease stability score of -0.215.

Sequence “DEQWLNRLNRVFEHNNEEDLIKNMDPNVRVEIGDKRVRGRHKVKEALDRLKEEADHLQLKSVHVQGDKVSATMEMVVNGKHVQMTVTIEFTNGRIKNQRYKATDEKDKKVINDIMG” registered a protease stability score of 0.34.

On to “DERAADAIERLLKAMKDNDPSELSKQADENVHFDVGEKKYHGMETYARTVAKERHDAEQTYRLKDYRVDENHVSFNMRVVQTNNGKPVDVEAILRANVKGDKVKSMRIDEHK”, for which the protease stability score is -0.23.

“DERAAQTAVDLMKTNNERDRVKMADENVRYNVGDKTVHGREEWKKFAEQQRTSIDHMKIDDVKHHNGRIQVDMVVVVNGKKFRFVLQATVHNGKFKYFQRKVRDDEIRKILRRINK” yielded a protease stability score of 0.235.

Sequence “DERAEELLQRWMDAQRTGNPDEFVKLLDPNARYVVGDKEIHGSEQFKTHWQRQQDEMNVKVDVEDVKFSGNKISVRFHIEVDVNGRPLTDTATATWDLHNGRIKRQVYHLDPEFLRQVDS” yielded a protease stability score of 0.936.

For the sequence “DERAEELVKRIFEALHDGDPQKFVNNIDPNARVNIGDEEIHGRKDAEREIQKRLEHSRVRFDLRSFRVSNGRAEATANVQENHNGRPQTNTVKATFVIHDGRVKEINMQHDG”, the protease stability score is -0.101.

On to “DERAHEAIENWLRAEQTNDPKQVKDNADPNARVHVGDKVLHGMEEIQDELKRRIDQARYHIKDFHIDIQGEKAQIDREYTFSINGRPMSNTVRQEAKVDNGKIKEVNFRVSEELEDQEHK”, for which the protease stability score is -0.242.

“DERAHSHVEDFFRNLKSGNEDEIRKLLDPNARIKVGDKVIHGRDDAKRYVQQQKREMRMEYDVKTVDAQGDKIQVQVNVTQQHNGRPVQYQQNLHMTVENGDIHTVNYQMDTRIERVQES” came in with a protease stability score of -0.231.

Sequence “DERAIRTVTRFWTAIKHNDPDKAVENVDPNARFRIGDREVDGDEDAKQWIEEMKRHMHIDIRSLRARDQGDKIEINFKFVISYNGRPQSQTQHATARVHNGKIHEVDINFDDQKKRELDS” came in with a protease stability score of -0.006.

In the case of “DERAKEQMKNFQQAVSEGDPDQFRELMDKDARMVIGDQQLHGREKMMHQWQRLTRRIRREVKSVDVQVRGDTAELDIHFEQRKDGQPTKNSAVLEAVVHNGKVKELRVKNKR”, the protease stability score is 0.078.

As for “DERAKEVFKELIEAWKHGNEDQVREMADKDARFTVGDKEIHGREEWAKQIRERHEKIRFEMRIRHVHVNGDRLSIEADFSVDINGQPLSYRMKIELRIHNGKIKELVFQVSEEDKNKQKR”, the protease stability score amounted to 0.576.

Regarding “DERALDVARQLVEALNTGDPETANNLLDKNVHIRVGDKRIHGRKQHSRTVDREKKEIRRHLEKVTNKSKGDKADVDIQFQQTHNGRPTSNQMKMIVEARNGKVKRMSVREHG”, the protease stability score was -0.469.

In the case of “DERALDVVRKYQEALNSNDPEHLVELIDPNAKLQVGDKTIHGREQLHHEAQKRKDEMRLNVEVHDLRDRGSTVQIHARRSYSHNGRPRSERYVLHATIRGDKIDKMHFQTDS”, the protease stability score was -0.243.

For “DERALKMIREFEEIRSKGDERQLSEQVDKDADFHVGDKRLTGMDRVASELVQEVRDWRVSVDIKRMSISNGSLDIDAQVRFSHNGKPVTVHLDLKIIVHNGTIKQIEITNQP”, the protease stability score turned out to be 0.698.

In turn, “DERALRNWRRLETAVNTNNPDKVQKLMDKDVKYEVGDKTIRGRRHAAQSLVERVNKIHLDIKSVTATDSGDNVRIRLDAVRNHNGRPHRDVLNITVKADNGKIVSVKTTKDG” displayed a protease stability score of 0.001.

In the case of “DERAQDLVRQWLENVHTGDPSKLREQMDPNAHVVIGDRTFTGRENFAETVHHHLQDQRVQYDTMRIENEGEKARFRYKATVQHNGQPSKHQATAQLTLHNGRIQSLQMESTQ”, the protease stability score was -0.162.

“DERAREIVTRYFTALERGDPDKARKLADKDVRISVGDTQINGHDQMARTIDKQKKHMRIRFEDVKIHVNNGRADVKFHAVFEHNGKPERKNRTIIFNVHDGRIKEIQAQDDE” gave a protease stability score of 0.321.
